In the RNAGym collection of RNA variant scans (doi:10.7554/elife.80360):

B1: HDV Ribozyme (parent)
chain: GGCCGGCAUGGUCCCAGCCUCCUCGCUGGCGCCGGCUGGGCAACAUUCCGAGGGGACCGUCCCCUCGGUAAUGGCGAAUGGGACCCA

Variants of: B1
Experiment: self-cleavage, relative activity (ratio to wild type); higher = more cleavage; co-transcriptional

| Variant | self-cleavage |
| --- | --- |
| G17C C33G | 0 |
| G17C C33A | 0.0437 |
| G17C G74C | 0 |
| G17C C58G | 0.32 |
| G17C C58U | 0.302 |
| G17C G39C | 0.0462 |
| G17C G39A | 0.113 |
| G17U C75U | 0.181 |
| G17U C75G | 0.0594 |
| G17C U20A | 0.0573 |
| G17U C24U | 0.146 |
| G17U C24A | 0.116 |
| G17U C24G | 0.128 |
| G17A U72A | 0.219 |
| G17U A83U | 0.34 |
| G17C C62G | 0.0723 |
| G17C C62A | 0.252 |
| G17A U69G | 0.906 |
| G17A U69C | 0.786 |
| G17U A42C | 0.125 |
| G17U A42U | 0.089 |
| G17U A42G | 0.0489 |
| G17C C84A | 0.231 |
| G17A U65C | 0.671 |

| Variant | self-cleavage |
| --- | --- |
| G17A U65A | 0.752 |
| G17A U65G | 0.773 |
| G17U A71C | 0.383 |
| G17C C26G | 0.0852 |
| G17C A87G | 0.244 |
| G17U C84U | 0.487 |
| G17U C84A | 0.445 |
| G17U A45U | 0.244 |
| G17U A45C | 0.161 |
| G17U A45G | 0.525 |
| G17A U47C | 0.587 |
| G17A U47A | 0.554 |
| G17C U79A | 0.26 |
| G17C U79C | 0.427 |
| G17C U79G | 0.128 |
| G17C C63A | 0.306 |
| G17C C63G | 0.244 |
| G17U C22G | 0.095 |
| G17U C22U | 0.0959 |
| G17C G81U | 0.193 |
| G17U C64A | 0.601 |
| G17C C48A | 0.388 |
| G17C C48G | 0.252 |
| G17U C33U | 0.326 |

| Variant | self-cleavage |
| --- | --- |
| G17C C75G | 0.111 |
| G17C C75A | 0.0536 |
| G17U A77C | 0.166 |
| G17U C62A | 0.429 |
| G17C G53A | 0.281 |
| G17C G53U | 0.298 |
| G17C G53C | 0.178 |
| G17C A56G | 0.145 |
| G17C C24U | 0.106 |
| G17C C36G | 0.122 |
| G17C C36U | 0.0339 |
| G17C C36A | 0.0361 |
| G17C G55U | 0.208 |
| G17C G55C | 0.262 |
| G17C G55A | 0.402 |
| G17C G80C | 0.0906 |
| G17C C49U | 0.332 |
| G17C C18G | 0 |
| G17C C18U | 0.0923 |
| G17U C18U | 0.189 |
| G17U C18A | 0.0978 |
| G17U A78C | 0.131 |
| G17U A78U | 0.0739 |
| G17C A42C | 0.0723 |

| Variant | self-cleavage |
| --- | --- |
| G17C A42U | 0.158 |
| G17C A42G | 0 |
| G17C U46C | 0.0791 |
| G17C U37G | 0 |
| G17C U37C | 0.344 |
| G17C U37A | 0 |
| G17C G68A | 0.297 |
| G17C G68U | 0.425 |
| G17C G68C | 0.227 |
| G17U C19G | 0 |
| G17U C19U | 0.199 |
| G17U C19A | 0.166 |
| G17C C30G | 0.684 |
| G17C C30U | 0.655 |
| G17C C30A | 0.342 |
| G17A U79A | 0.627 |
| G17A U79C | 0.514 |
| G17C A70G | 0.346 |
| G17C G38U | 0.0898 |
| G17C G40A | 0.19 |
| G17C G40U | 0.196 |
| G17U C66G | 0.464 |
| G17U C66A | 0.684 |
| G17U C66U | 0.469 |

| Variant | self-cleavage |
| --- | --- |
| G17C G31U | 0.0831 |
| G17C G31A | 0.0652 |
| G17U C49U | 0.356 |
| G17U C49G | 0.356 |
| G17C U72A | 0 |
| G17C U72G | 0.161 |
| G17C U72C | 0 |
| G17C G59U | 0.342 |
| G17C C19A | 0.0519 |
| G17C C19G | 0 |
| G17U A43U | 0.185 |
| G17U A43C | 0.203 |
| G17C | 0.338 |
| G17U | 0.548 |
| G17C C44A | 0 |
| G17C C44G | 0.0723 |
| G17U C21U | 0.13 |
| G17U C63G | 0.509 |
| G17C U65C | 0.529 |
| G17C A78U | 0.18 |
| G17C A78G | 0.0536 |
| G17C A78C | 0.0755 |
| G17U C44G | 0.222 |
| G17U C44A | 0.323 |

| Variant | self-cleavage |
| --- | --- |
| G17U C44U | 0.146 |
| G17C U23G | 0.123 |
| G17C U69G | 0.317 |
| G17C U69A | 0.453 |
| G17C U69C | 0.269 |
| G17C C61U | 0.383 |
| G17C A43G | 0 |
| G17C A43U | 0.115 |
| G17U C36G | 0 |
| G17U C36A | 0.0665 |
| G17C C32A | 0 |
| G17C A71C | 0.246 |
| G17C U27A | 0.222 |
| G17C G25A | 0.131 |
| G17C G25C | 0.0475 |
| G17U A70C | 0.246 |
| G17U C32U | 0.125 |
| G17U C48U | 0.458 |
| G17A U60C | 0.522 |
| G17C G34A | 0.102 |
| G17C G34U | 0.0415 |
| G17C C86U | 0.237 |
| G17C G67C | 0.289 |
| G17C C21G | 0.145 |

| Variant | self-cleavage |
| --- | --- |
| G17U C57G | 0.464 |
| G17U C57U | 0.415 |
| G17C G82U | 0 |
| G17C G82A | 0.147 |
| G17C U60A | 0.575 |
| G17A U27G | 0.485 |
| G17A U27C | 0.309 |
| G17C G50C | 0.324 |
| G17C C85G | 0.185 |
| G17C C85A | 0.388 |
| G17C C85U | 0.156 |
| G17C C22A | 0 |
| G17C C22G | 0.208 |
| G17U C61G | 0.424 |
| G17U C61A | 0.456 |
| G17U A87C | 0.389 |
| G17U A56C | 0.415 |
| G17C G28A | 0.0449 |
| G17U A51U | 0.491 |
| G17C C66U | 0.156 |
| G17C G54C | 0.447 |
| G17C C57A | 0.437 |
| G17C C41U | 0.0449 |
